The values that follow come from US20250171562A1 (ALK ABELL, published 2025).

B1: NIgG4F4A1(G4S)2 (Fc fusion)
chain 1: DVQLQESGGGLVQAGGSLRLSCAVSGLSFSSMGWFRQPPGKEREFVAAISLYSGSTYYADSVKGRFTISSDNAKSTVYLQMNSLKPEDAAVYFCAADRQRTWSTFYASRQATYNYWGQGTQVTVTSGGGGSGGGGSGPPCPPCPAPEFLGGPSVFLFPPKPKDTLMISRTPEVTCVVVDVSQEDPEVQFNWYVDGVEVHNAKTKPREEQFNSTYRVVSVLTVLHQDWLNGKEYKCKVSNKGLPSSIEKTISKAKGQPREPQVYTLPPCQEEMTKNQVSLWCLVKGFYPSDIAVEWESNGQPENNYKTTPPVLDSDGSFFLYSRLTVDKSRWQEGNVFSCSVMHEALHNHYTQKSLSLSLGK
chain 2: EVQLLESGGGLVQPGGSLRLSCAASGFTFGNYDMAWVRQAPGKRPEWVSSIDTGGDITHYADSVKGRFTISRDNAKNTLYLQMNSLRPEDTAVYWCATDEEYALGPNEFDYYGQGTLVTVSSGGGGSGGGGSGPPCPPCPAPEFLGGPSVFLFPPKPKDTLMISRTPEVTCVVVDVSQEDPEVQFNWYVDGVEVHNAKTKPREEQFNSTYRVVSVLTVLHQDWLNGKEYKCKVSNKGLPSSIEKTISKAKGQPREPQVCTLPPSQEEMTKNQVSLSCAVKGFYPSDIAVEWESNGQPENNYKTTPPVLDSDGSFFLVSRLTVDKSRWQEGNVFSCSVMHEALHNHYTQKSLSLSLGK
B2: NIgG4F4A1(G4S)3 (Fc fusion)
chain 1: DVQLQESGGGLVQAGGSLRLSCAVSGLSFSSMGWFRQPPGKEREFVAAISLYSGSTYYADSVKGRFTISSDNAKSTVYLQMNSLKPEDAAVYFCAADRQRTWSTFYASRQATYNYWGQGTQVTVTSGGGGSGGGGSGGGGSGPPCPPCPAPEFLGGPSVFLFPPKPKDTLMISRTPEVTCVVVDVSQEDPEVQFNWYVDGVEVHNAKTKPREEQFNSTYRVVSVLTVLHQDWLNGKEYKCKVSNKGLPSSIEKTISKAKGQPREPQVYTLPPCQEEMTKNQVSLWCLVKGFYPSDIAVEWESNGQPENNYKTTPPVLDSDGSFFLYSRLTVDKSRWQEGNVFSCSVMHEALHNHYTQKSLSLSLGK
chain 2: EVQLLESGGGLVQPGGSLRLSCAASGFTFGNYDMAWVRQAPGKRPEWVSSIDTGGDITHYADSVKGRFTISRDNAKNTLYLQMNSLRPEDTAVYWCATDEEYALGPNEFDYYGQGTLVTVSSGGGGSGGGGSGGGGSGPPCPPCPAPEFLGGPSVFLFPPKPKDTLMISRTPEVTCVVVDVSQEDPEVQFNWYVDGVEVHNAKTKPREEQFNSTYRVVSVLTVLHQDWLNGKEYKCKVSNKGLPSSIEKTISKAKGQPREPQVCTLPPSQEEMTKNQVSLSCAVKGFYPSDIAVEWESNGQPENNYKTTPPVLDSDGSFFLVSRLTVDKSRWQEGNVFSCSVMHEALHNHYTQKSLSLSLGK
B3: CIgG4F4A1(G4S)1 (Fc fusion)
chain 1: GPPCPPCPAPEFLGGPSVFLFPPKPKDTLMISRTPEVTCVVVDVSQEDPEVQFNWYVDGVEVHNAKTKPREEQFNSTYRVVSVLTVLHQDWLNGKEYKCKVSNKGLPSSIEKTISKAKGQPREPQVYTLPPCQEEMTKNQVSLWCLVKGFYPSDIAVEWESNGQPENNYKTTPPVLDSDGSFFLYSRLTVDKSRWQEGNVFSCSVMHEALHNHYTQKSLSLSLGKGGGGSDVQLQESGGGLVQAGGSLRLSCAVSGLSFSSMGWFRQPPGKEREFVAAISLYSGSTYYADSVKGRFTISSDNAKSTVYLQMNSLKPEDAAVYFCAADRQRTWSTFYASRQATYNYWGQGTQVTVTS
chain 2: GPPCPPCPAPEFLGGPSVFLFPPKPKDTLMISRTPEVTCVVVDVSQEDPEVQFNWYVDGVEVHNAKTKPREEQFNSTYRVVSVLTVLHQDWLNGKEYKCKVSNKGLPSSIEKTISKAKGQPREPQVCTLPPSQEEMTKNQVSLSCAVKGFYPSDIAVEWESNGQPENNYKTTPPVLDSDGSFFLVSRLTVDKSRWQEGNVFSCSVMHEALHNHYTQKSLSLSLGKGGGGSEVQLLESGGGLVQPGGSLRLSCAASGFTFGNYDMAWVRQAPGKRPEWVSSIDTGGDITHYADSVKGRFTISRDNAKNTLYLQMNSLRPEDTAVYWCATDEEYALGPNEFDYYGQGTLVTVSS
B4: NIgG4F4A1(G4S)1 (Fc fusion)
chain 1: DVQLQESGGGLVQAGGSLRLSCAVSGLSFSSMGWFRQPPGKEREFVAAISLYSGSTYYADSVKGRFTISSDNAKSTVYLQMNSLKPEDAAVYFCAADRQRTWSTFYASRQATYNYWGQGTQVTVTSGGGGSGPPCPPCPAPEFLGGPSVFLFPPKPKDTLMISRTPEVTCVVVDVSQEDPEVQFNWYVDGVEVHNAKTKPREEQFNSTYRVVSVLTVLHQDWLNGKEYKCKVSNKGLPSSIEKTISKAKGQPREPQVYTLPPCQEEMTKNQVSLWCLVKGFYPSDIAVEWESNGQPENNYKTTPPVLDSDGSFFLYSRLTVDKSRWQEGNVFSCSVMHEALHNHYTQKSLSLSLGK
chain 2: EVQLLESGGGLVQPGGSLRLSCAASGFTFGNYDMAWVRQAPGKRPEWVSSIDTGGDITHYADSVKGRFTISRDNAKNTLYLQMNSLRPEDTAVYWCATDEEYALGPNEFDYYGQGTLVTVSSGGGGSGPPCPPCPAPEFLGGPSVFLFPPKPKDTLMISRTPEVTCVVVDVSQEDPEVQFNWYVDGVEVHNAKTKPREEQFNSTYRVVSVLTVLHQDWLNGKEYKCKVSNKGLPSSIEKTISKAKGQPREPQVCTLPPSQEEMTKNQVSLSCAVKGFYPSDIAVEWESNGQPENNYKTTPPVLDSDGSFFLVSRLTVDKSRWQEGNVFSCSVMHEALHNHYTQKSLSLSLGK
B5: CIgG4F4A1(RS) (Fc fusion)
chain 1: GPPCPPCPAPEFLGGPSVFLFPPKPKDTLMISRTPEVTCVVVDVSQEDPEVQFNWYVDGVEVHNAKTKPREEQFNSTYRVVSVLTVLHQDWLNGKEYKCKVSNKGLPSSIEKTISKAKGQPREPQVYTLPPCQEEMTKNQVSLWCLVKGFYPSDIAVEWESNGQPENNYKTTPPVLDSDGSFFLYSRLTVDKSRWQEGNVFSCSVMHEALHNHYTQKSLSLSLGKRSDVQLQESGGGLVQAGGSLRLSCAVSGLSFSSMGWFRQPPGKEREFVAAISLYSGSTYYADSVKGRFTISSDNAKSTVYLQMNSLKPEDAAVYFCAADRQRTWSTFYASRQATYNYWGQGTQVTVTS
chain 2: GPPCPPCPAPEFLGGPSVFLFPPKPKDTLMISRTPEVTCVVVDVSQEDPEVQFNWYVDGVEVHNAKTKPREEQFNSTYRVVSVLTVLHQDWLNGKEYKCKVSNKGLPSSIEKTISKAKGQPREPQVCTLPPSQEEMTKNQVSLSCAVKGFYPSDIAVEWESNGQPENNYKTTPPVLDSDGSFFLVSRLTVDKSRWQEGNVFSCSVMHEALHNHYTQKSLSLSLGKRSEVQLLESGGGLVQPGGSLRLSCAASGFTFGNYDMAWVRQAPGKRPEWVSSIDTGGDITHYADSVKGRFTISRDNAKNTLYLQMNSLRPEDTAVYWCATDEEYALGPNEFDYYGQGTLVTVSS
B6: NIgG4F4A1(RS) (Fc fusion)
chain 1: DVQLQESGGGLVQAGGSLRLSCAVSGLSFSSMGWFRQPPGKEREFVAAISLYSGSTYYADSVKGRFTISSDNAKSTVYLQMNSLKPEDAAVYFCAADRQRTWSTFYASRQATYNYWGQGTQVTVTSRSGPPCPPCPAPEFLGGPSVFLFPPKPKDTLMISRTPEVTCVVVDVSQEDPEVQFNWYVDGVEVHNAKTKPREEQFNSTYRVVSVLTVLHQDWLNGKEYKCKVSNKGLPSSIEKTISKAKGQPREPQVYTLPPCQEEMTKNQVSLWCLVKGFYPSDIAVEWESNGQPENNYKTTPPVLDSDGSFFLYSRLTVDKSRWQEGNVFSCSVMHEALHNHYTQKSLSLSLGK
chain 2: EVQLLESGGGLVQPGGSLRLSCAASGFTFGNYDMAWVRQAPGKRPEWVSSIDTGGDITHYADSVKGRFTISRDNAKNTLYLQMNSLRPEDTAVYWCATDEEYALGPNEFDYYGQGTLVTVSSRSGPPCPPCPAPEFLGGPSVFLFPPKPKDTLMISRTPEVTCVVVDVSQEDPEVQFNWYVDGVEVHNAKTKPREEQFNSTYRVVSVLTVLHQDWLNGKEYKCKVSNKGLPSSIEKTISKAKGQPREPQVCTLPPSQEEMTKNQVSLSCAVKGFYPSDIAVEWESNGQPENNYKTTPPVLDSDGSFFLVSRLTVDKSRWQEGNVFSCSVMHEALHNHYTQKSLSLSLGK
B7: CIgG4F3A1(G4S)3 (Fc fusion)
chain 1: GPPCPPCPAPEFLGGPSVFLFPPKPKDTLMISRTPEVTCVVVDVSQEDPEVQFNWYVDGVEVHNAKTKPREEQFNSTYRVVSVLTVLHQDWLNGKEYKCKVSNKGLPSSIEKTISKAKGQPREPQVYTLPPCQEEMTKNQVSLWCLVKGFYPSDIAVEWESNGQPENNYKTTPPVLDSDGSFFLYSRLTVDKSRWQEGNVFSCSVMHEALHNHYTQKSLSLSLGKGGGGSGGGGSGGGGSDVQLQESGGGLVQAGGSLKLSCAASRGSLSRWDVAWFRQAPGKERSFVTRISWSGTTSYYADAVKGRFAISRDNAKNTVYLQMNSLKPEDTAVYYCAVALYGNRGYYDVNAHSYWGQGTQVTVS
chain 2: GPPCPPCPAPEFLGGPSVFLFPPKPKDTLMISRTPEVTCVVVDVSQEDPEVQFNWYVDGVEVHNAKTKPREEQFNSTYRVVSVLTVLHQDWLNGKEYKCKVSNKGLPSSIEKTISKAKGQPREPQVCTLPPSQEEMTKNQVSLSCAVKGFYPSDIAVEWESNGQPENNYKTTPPVLDSDGSFFLVSRLTVDKSRWQEGNVFSCSVMHEALHNHYTQKSLSLSLGKGGGGSGGGGSGGGGSEVQLLESGGGLVQPGGSLRLSCAASGFTFGNYDMAWVRQAPGKRPEWVSSIDTGGDITHYADSVKGRFTISRDNAKNTLYLQMNSLRPEDTAVYWCATDEEYALGPNEFDYYGQGTLVTVSS
B8: CIgG4F3A1(G4S)2 (Fc fusion)
chain 1: GPPCPPCPAPEFLGGPSVFLFPPKPKDTLMISRTPEVTCVVVDVSQEDPEVQFNWYVDGVEVHNAKTKPREEQFNSTYRVVSVLTVLHQDWLNGKEYKCKVSNKGLPSSIEKTISKAKGQPREPQVYTLPPCQEEMTKNQVSLWCLVKGFYPSDIAVEWESNGQPENNYKTTPPVLDSDGSFFLYSRLTVDKSRWQEGNVFSCSVMHEALHNHYTQKSLSLSLGKGGGGSGGGGSDVQLQESGGGLVQAGGSLKLSCAASRGSLSRWDVAWFRQAPGKERSFVTRISWSGTTSYYADAVKGRFAISRDNAKNTVYLQMNSLKPEDTAVYYCAVALYGNRGYYDVNAHSYWGQGTQVTVS
chain 2: GPPCPPCPAPEFLGGPSVFLFPPKPKDTLMISRTPEVTCVVVDVSQEDPEVQFNWYVDGVEVHNAKTKPREEQFNSTYRVVSVLTVLHQDWLNGKEYKCKVSNKGLPSSIEKTISKAKGQPREPQVCTLPPSQEEMTKNQVSLSCAVKGFYPSDIAVEWESNGQPENNYKTTPPVLDSDGSFFLVSRLTVDKSRWQEGNVFSCSVMHEALHNHYTQKSLSLSLGKGGGGSGGGGSEVQLLESGGGLVQPGGSLRLSCAASGFTFGNYDMAWVRQAPGKRPEWVSSIDTGGDITHYADSVKGRFTISRDNAKNTLYLQMNSLRPEDTAVYWCATDEEYALGPNEFDYYGQGTLVTVSS

This test deals with T1, recombinant human IgE (human, UniProt P01854-1 1-428).
T1 construct: made in-house (ALK); preloaded on immobilised FcεRIα in the displacement ELISA
T1 sequence (P01854 other isoform, or with tags, fused parts or gaps): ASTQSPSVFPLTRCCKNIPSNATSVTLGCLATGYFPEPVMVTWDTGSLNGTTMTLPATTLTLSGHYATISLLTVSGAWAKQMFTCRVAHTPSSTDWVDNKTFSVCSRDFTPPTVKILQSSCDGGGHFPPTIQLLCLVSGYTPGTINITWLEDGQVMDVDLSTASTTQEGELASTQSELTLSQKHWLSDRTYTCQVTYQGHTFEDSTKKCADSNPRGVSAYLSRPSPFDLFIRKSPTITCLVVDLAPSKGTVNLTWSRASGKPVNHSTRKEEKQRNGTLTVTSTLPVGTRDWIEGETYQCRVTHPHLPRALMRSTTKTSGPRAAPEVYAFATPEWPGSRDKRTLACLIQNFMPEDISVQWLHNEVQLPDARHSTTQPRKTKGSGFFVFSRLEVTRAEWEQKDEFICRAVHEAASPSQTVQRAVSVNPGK
Kind of test: IgE-FcεRIα displacement ELISA. The gist of the method: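 sdAbs at pM–μM were incubated 1 h on preformed complexes of 13 ng/ml recombinant human IgE with avi-tag-biotinylated human FcεRIα captured on streptavidin.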
Background: In an ELISA, binding on a coated surface is turned into a signal by an enzyme label.
For B1, the Max effect was over 95%.
Regarding B2, the Max effect was over 95%.
Regarding B3, the half-maximal effective concentration (EC50) turned out to be 17 nM and the Max effect turned out to be 90%.
In the case of B4, the Max effect was over 95%.
For the molecule B5, the EC50 is 90 nM and the Max effect amounted to 70%.
B6: the Max effect was over 95%.
Take B7: the 50% effective concentration (EC50) came out at 24 nM and the Max effect was 90%.
For the molecule B8, the EC50 came to 41 nM and the Max effect is 80%.

One may read the EC50 as the concentration needed to bring the measured effect to its halfway point.
